Values quoted from earlier work in paper PMC7300301.

Biological target: FcRn (Homo sapiens) (UniProt P55899)

Kd: 750 nM
Substance: palivizumab
